Test results published in patent US20250026813A1 (published 2025).
Residue numbers refer to the chain shown, from its start.

B1: IMPI-054 (antibody, V domains shown)
VH: EVQLVESGGGLIQPGGSLRLSCAASGLTVSSNYMSWVRQAPGKGLEWVSIIYSGGSTYYADSVKGRFTISRDNSKNTLYLQMNSLRAEDTAVYYCARLGGYYYYGMDVWGQGTTVTVSS
VL: DIQMTQSPSSLSASVGERVTITCQASQDIRNYLNWYQKKPGKAPKLLIYDSSNLETGVPSRFSGSGSGTDFTFTISSLQPEDIATYYCQQYDNLPITFGQGTRLEIK
B2: IMPI-017 (antibody, V domains shown)
VH: EVQLVESGGGLIQPGGSLRLSCAAAGLTVSSNYMNWVRQVPGKGLEWVSVIYSGGSTYYADSVKGRFTISRDNSKNTLYLQMNSLRAEDTAVYYCARDLGTLGMDVWGQGTTVTVSS
VL: DIQLTQSPSFLSASVGDRVTITCWASQGISTYLAWYQQKPGKAPKLLIYAASTLQSGVPSRFSGSGSGTEFTLTISSLQPEDFATYYCQQLNSYLPTFGQGTKVEIK
B3: IMPI-037 (antibody, V domains shown)
VH: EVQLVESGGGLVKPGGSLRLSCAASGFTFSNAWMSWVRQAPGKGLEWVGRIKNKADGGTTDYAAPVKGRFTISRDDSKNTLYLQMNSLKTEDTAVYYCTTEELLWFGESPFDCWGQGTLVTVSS
VL: B2 VL with S30N, T31S, A84T, L91F, S93D, L95P, P96R, Q100P
B4: IMPI-059 (antibody, V domains shown)
VH: EVQLVESGGGLIQPGGSLRLSCAASGFTVSSIYMSWVRQAPGKGLEWVSIIYSRGSTDYADSVKGRFTISRDISKNTLYLQMNSLRAEDTAVYYCARDGTMVRGVHAFDIWGQGTMVTVSS
VL: DIQMTQSPPSLSASIGDRVTITCQASQDISNYLNWYQQKPGKAPKLLIYDASNLETGVPSRFSGSGSGTDFTLTISNLQPEDIVTYYCQQYDNLPSSFGQGTKLEIK
B5: IMPI-055 (antibody, V domains shown)
VH: QVQLVQSGAEVKKPGASVKVSCKASGYTFTSYDINWVRQATGQGLEWMGWMNPNSGNTGYAQKFQGRVTMTRDTSINTAYMELSSLRSEDTAVYFCARGGRYCSDVTCYSGEPFDYWGQGTLVTVSS
VL: EIMLTQSPDFQSVTPKEKVTITCRASQSIGSSLHWYQQKPDQSPKLLIKFASQSISGVPSRFSGSGSGTDFTLTINSLEAEDAAAYYCHQSSSLPHTFGPGTKVEIK
B6: IMPI-013 (antibody, V domains shown)
VH: EVQLVESGGGLVQPGRSLRLSCAASGFTFDDYAMHWVRQTPGKGLEWVSGISWNSGSIGYADSVKGRFTISRDNAKNSLYLQMNSLRAEDTALYYCTKDLGLGIGFYYGLDVWGQGTTVTVSS
VL: AIQMTQSPSSLSTSVGDRVTITCRASQGIRNDLGWYQLKPGKAPKLLIYDASTLQSGVPSRFSGSGSGTDFTLTISSLEPEDLATYYCLHHYTYPWTFGHGTKVELK

Biological target: full soluble spike trimer of SARS-CoV-2 virus (stabilised, in-house) (SARS-CoV-2, UniProt P0DTC2 14-1208; P10104 458-484)

Row | Binder | IC50 [nM]
1 | B1 | 11.6
2 | B2 | 3.15
3 | B3 | 13.7
4 | B4 | 8.38
5 | B5 | 4.5

Biological target: SARS-CoV-2 spike protein trimer stabilised by double proline (PP) mutation (FIG. 2B sequence) with C (SARS-CoV-2, UniProt P0DTC2 14-1208; P10104 458-484)

Row | Binder | Kd [nM]
6 | B6 | 0.299
